Patent publication US20190241657A1 (Sanofi, published 2019)
Numbering of substitutions follows the chain as printed.

B1: Single chain antibody DART format MGD006 (CD123xCD3 bi-specific diabody) (bispecific antibody)
chain 1: QAVVTQEPSLTVSPGGTVTLTCRSSTGAVTTSNYANWVQQKPGQAPRGLIGGTNKRAPWTPARFSGSLLGGKAALTITGAQAEDEADYYCALWYSNLWVFGGGTKLTVLGGGGSGGGGEVQLVQSGAELKKPGASVKVSCKASGYTFTDYYMKWVRQAPGQGLEWIGDIIPSNGATFYNQKFKGRVTITVDKSTSTAYMELSSLRSEDTAVYYCARSHLLRASWFAYWGQGTLVTVSSGGCGGGEVAALEKEVAALEKEVAALEKEVAALEK
chain 2: DFVMTQSPDSLAVSLGERVTMSCKSSQSLLNSGNQKNYLTWYQQKPGQPPKLLIYWASTRESGVPDRFSGSGSGTDFTLTISSLQAEDVAVYYCQNDYSYPYTFGQGTKLEIKGGGSGGGGEVQLVESGGGLVQPGGSLRLSCAASGFTFSTYAMNWVRQAPGKGLEWVGRIRSKYNNYATYYADSVKDRFTISRDDSKNSLYLQMNSLKTEDTAVYYCVRHGNFGNSYVSWFAYWGQGTLVTVSSGGCGGGKVAALKEKVAALKEKVAALKEKVAALKE
notes: The two chains are covalently bonded to one another by a disulfide bond; also called single chain DART; CD123xCD3 bispecific DART
B2: CODV-Fab-TL1-Knob-RFxhole "hz20G6xhz7G3" antibody-like binding protein (bispecific antibody, human IgG1, kappa, L234A L235A)
light: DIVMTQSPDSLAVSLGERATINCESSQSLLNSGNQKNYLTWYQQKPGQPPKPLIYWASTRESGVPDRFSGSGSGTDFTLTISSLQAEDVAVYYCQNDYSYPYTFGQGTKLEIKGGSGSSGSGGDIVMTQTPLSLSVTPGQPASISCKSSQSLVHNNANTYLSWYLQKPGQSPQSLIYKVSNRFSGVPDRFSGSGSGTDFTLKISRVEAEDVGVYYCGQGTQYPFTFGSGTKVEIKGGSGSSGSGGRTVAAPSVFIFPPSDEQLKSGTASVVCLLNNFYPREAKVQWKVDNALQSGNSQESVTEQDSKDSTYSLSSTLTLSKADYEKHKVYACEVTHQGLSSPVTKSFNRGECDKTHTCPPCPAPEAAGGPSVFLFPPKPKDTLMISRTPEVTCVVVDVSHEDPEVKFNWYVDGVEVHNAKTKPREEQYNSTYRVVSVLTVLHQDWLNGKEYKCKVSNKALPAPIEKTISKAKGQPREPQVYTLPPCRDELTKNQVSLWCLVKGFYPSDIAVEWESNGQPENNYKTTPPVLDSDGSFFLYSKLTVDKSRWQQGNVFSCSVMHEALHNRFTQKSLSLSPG
heavy: QVQLVESGGGVVQPGRSLRLSCAASGFTFTKAWMHWVRQAPGKQLEWVAQIKDKSNSYATYYADSVKGRFTISRDDSKNTLYLQMNSLRAEDTAVYYCRGVYYALSPFDYWGQGTLVTVSSEVQLVQSGAEVKKPGESLKISCKGSGYSFTDYYMKWARQMPGKGLEWMGDIIPSSGATFYNQKFKGQVTISADKSISTTYLQWSSLKASDTAMYYCARSHLLRASWFAYWGQGTMVTVSSASTKGPSVFPLAPSSKSTSGGTAALGCLVKDYFPEPVTVSWNSGALTSGVHTFPAVLQSSGLYSLSSVVTVPSSSLGTQTYICNVNHKPSNTKVDKKVEPKSCDKTHTCPPCPAPEAAGGPSVFLFPPKPKDTLMISRTPEVTCVVVDVSHEDPEVKFNWYVDGVEVHNAKTKPREEQYNSTYRVVSVLTVLHQDWLNGKEYKCKVSNKALPAPIEKTISKAKGQPREPQVCTLPPSRDELTKNQVSLSCAVKGFYPSDIAVEWESNGQPENNYKTTPPVLDSDGSFFLVSKLTVDKSRWQQGNVFSCSVMHEALHNHYTQKSLSLSPG
notes: CODV-Fab-TL format; IgG1 backbone with LALA mutation
B3: CODV-Fab-TL1-Knobxhole-RF "hz20G6xhz7G3" antibody-like binding protein (bispecific antibody, human IgG1, kappa, L234A L235A)
light: not shown
heavy: B2 heavy with H559R, Y560F
notes: as for B2
B4: CODV-Fab-TL1-RF "hz20G6xhz7G3" antibody-like binding protein (bispecific antibody, human IgG1, kappa, L234A L235A)
light: DIVMTQSPDSLAVSLGERATINCESSQSLLNSGNQKNYLTWYQQKPGQPPKPLIYWASTRESGVPDRFSGSGSGTDFTLTISSLQAEDVAVYYCQNDYSYPYTFGQGTKLEIKGGSGSSGSGGDIVMTQTPLSLSVTPGQPASISCKSSQSLVHNNANTYLSWYLQKPGQSPQSLIYKVSNRFSGVPDRFSGSGSGTDFTLKISRVEAEDVGVYYCGQGTQYPFTFGSGTKVEIKGGSGSSGSGGRTVAAPSVFIFPPSDEQLKSGTASVVCLLNNFYPREAKVQWKVDNALQSGNSQESVTEQDSKDSTYSLSSTLTLSKADYEKHKVYACEVTHQGLSSPVTKSFNRGECDKTHTCPPCPAPEAAGGPSVFLFPPKPKDTLMISRTPEVTCVVVDVSHEDPEVKFNWYVDGVEVHNAKTKPREEQYNSTYRVVSVLTVLHQDWLNGKEYKCKVSNKALPAPIEKTISKAKGQPREPQVYTLPPSRDELTKNQVSLTCLVKGFYPSDIAVEWESNGQPENNYKTTPPVLDSDGSFFLYSKLTVDKSRWQQGNVFSCSVMHEALHNRFTQKSLSLSPG
heavy: not shown
notes: Anti-CD3 (hz20G6) x anti-CD123 (hz7G3) in the CODV-Fab-TL format; IgG1 backbone with LALA mutation; also called hz20G6xhz7G3 CODV-Fab-TL1-RF; PB05126

How the values were obtained:
[1] = target: T1, mature human CD123 His-II tagged Fc-fusion protein (human); experiment: Biacore
T1 construct: also called huCD123; CD123-Fc-His
T1 sequence (chain, as listed by the source limits assumed): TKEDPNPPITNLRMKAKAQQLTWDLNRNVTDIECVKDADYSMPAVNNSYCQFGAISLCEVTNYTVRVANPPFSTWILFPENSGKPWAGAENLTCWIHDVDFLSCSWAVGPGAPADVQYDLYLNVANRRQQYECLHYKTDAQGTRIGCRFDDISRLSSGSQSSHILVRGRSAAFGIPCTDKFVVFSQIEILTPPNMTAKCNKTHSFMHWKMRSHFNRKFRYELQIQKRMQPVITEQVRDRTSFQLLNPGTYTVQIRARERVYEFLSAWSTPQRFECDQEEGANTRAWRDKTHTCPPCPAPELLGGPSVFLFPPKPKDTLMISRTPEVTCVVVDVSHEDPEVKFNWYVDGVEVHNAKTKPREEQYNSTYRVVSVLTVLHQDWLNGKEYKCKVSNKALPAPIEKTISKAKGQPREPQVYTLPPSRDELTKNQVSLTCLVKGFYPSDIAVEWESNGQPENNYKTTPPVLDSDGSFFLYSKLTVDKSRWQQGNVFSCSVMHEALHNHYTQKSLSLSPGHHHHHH
Procedure: Cytotoxic effects of the CODV-Fab-TL1-RF “hz20G6×hz7G3”, CODV-Fab-OL1 “hz20G6×hz7G3” and the single chain DART MGD006 were assessed. Affinities to the CD3ε/δ-complex and CD123 of each bispecific construct were measured by Biacore. Furthermore, a cytotoxic assay was performed as described in 2.8 (table 3).
Binding affinities of CODV antibody-like binding proteins to human CD3ε/δ and human CD123 were measured by surface plasmon resonance (SPR) using a Biacore3000 or Biacore T200 instrument (GE Healthcare) with HBS-EP (GE Healthcare) as assay buffer). Capture of CD3ε/δ-Fc or CD123-Fc-His fusion proteins was achieved using the His capture kit (GE Healthcare). The capture antibody was coupled to CM5 chips (GE Healthcare) to approx. 12.000 RU using the amine coupling kit (BR-100-50, GE Healthcare). The CD3εδ-Fc or CD123-Fc-His fusion proteins were captured at 10 μl/min to yield Rmax values of 30 RU. Binding kinetics with the CODV antibody-like binding proteins was measured at 30 μl/min Twofold dilutions of CODV antibody-like binding proteins from 3 to 200 nM in assay buffer were used. All Fab concentrations were run in duplicate together with duplicate buffer blanks for double referencing. Regeneration of the capture surface was performed with a 1 min injection of 10 mM Glycine pH1.5 at 30 μl/min. For data analysis the BIAevaluation software (GE Healthcare) was used. […]

[2] = target: T2, CD123 on THP-1 target cells (UniProt P26951 19-378); experiment: cell-based or functional assay
T2 sequence (P26951 19-378): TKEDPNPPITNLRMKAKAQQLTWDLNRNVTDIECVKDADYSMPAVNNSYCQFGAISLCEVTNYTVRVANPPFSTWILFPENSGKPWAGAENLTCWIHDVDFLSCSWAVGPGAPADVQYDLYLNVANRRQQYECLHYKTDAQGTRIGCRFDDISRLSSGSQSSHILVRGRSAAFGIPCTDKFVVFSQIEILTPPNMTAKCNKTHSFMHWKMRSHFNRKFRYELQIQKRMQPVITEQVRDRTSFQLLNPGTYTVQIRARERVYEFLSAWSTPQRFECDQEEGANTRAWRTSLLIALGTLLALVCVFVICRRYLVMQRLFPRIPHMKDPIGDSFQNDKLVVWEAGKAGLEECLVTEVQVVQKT

[3] = target: T2, CD123 on THP-1 target cells; experiment: cell-based or functional assay; remark: listed apart in the source
[4] = target: T2, CD123 on THP-1 target cells; experiment: cell-based or functional assay; remark: listed apart in the source
[5] = target: T2, CD123 on THP-1 target cells; experiment: cell-based or functional assay; remark: listed apart in the source
[6] = target: T2, CD123 on THP-1 target cells; experiment: cell-based or functional assay; remark: listed apart in the source
[7] = target: T2, CD123 on THP-1 target cells; experiment: cell-based or functional assay; remark: listed apart in the source
[8] = target: T2, CD123 on THP-1 target cells; experiment: cell-based or functional assay; remark: listed apart in the source
[9] = target: T1, mature human CD123 His-II tagged …; experiment: SPR (Biacore), CD123-Fc-His captured with His capture kit, CODV as analyte, 1:1 Langmuir with mass transfer
Procedure: Binding affinities of CODV antibody-like binding proteins to human CD3ε/δ and human CD123 were measured by surface plasmon resonance (SPR) using a Biacore3000 or Biacore T200 instrument (GE Healthcare) with HBS-EP (GE Healthcare) as assay buffer). Capture of CD3ε/δ-Fc or CD123-Fc-His fusion proteins was achieved using the His capture kit (GE Healthcare). The capture antibody was coupled to CM5 chips (GE Healthcare) to approx. 12.000 RU using the amine coupling kit (BR-100-50, GE Healthcare). The CD3εδ-Fc or CD123-Fc-His fusion proteins were captured at 10 μl/min to yield Rmax values of 30 RU. Binding kinetics with the CODV antibody-like binding proteins was measured at 30 μl/min Twofold dilutions of CODV antibody-like binding proteins from 3 to 200 nM in assay buffer were used. All Fab concentrations were run in duplicate together with duplicate buffer blanks for double referencing. Regeneration of the capture surface was performed with a 1 min injection of 10 mM Glycine pH1.5 at 30 μl/min. For data analysis the BIAevaluation software (GE Healthcare) was used. Data were fit globally using a 1:1 Langmuir model with mass transfer.

Binder	Kd [1] [nM]	T cell activation with THP-1 target cells, CD4+ T cells (% CD69+ cells) EC50 [2] [nM]	T cell activation with THP-1 target cells, CD8+ T cells (% CD69+ cells) EC50 [2] [nM]	Cytotoxic assay (THP cells) EC50 [3] [nM]	Jurkat-NFAT-Luc reporter cell activation with THP1 cells, EC50 [4] [nM]	flow cytometry based cytotoxic assay, EC50 (pM) GMean [5] [pM]	T-cell Activation with THP-1 target cells, CD4+/CD69+ EC50 (pM) GMean [6] [pM]	T-cell Activation with THP-1 target cells, CD8+/CD69+ EC50 (pM) GMean [6] [pM]	Activity - CD4+/CD69+ % Activation C = 100 nM Mean (with THP-1 target cells) [7] [%]	Activity - CD8+/CD69+ % Activation C = 100 nM Mean (with THP-1 target cells) [8] [%]	Kd [9] [nM]	koff [9] [s⁻¹]	kon [9] [M⁻¹ s⁻¹]
B1	0.2	0.001	0.0035	0.0003	0.37	–	–	–	–	–	–	–	–
B2	–	–	–	–	–	0.8	0.7	1.2	63	68	0.215	0.000102	474000
B3	–	–	–	–	–	1.1	0.9	1.6	64	70	0.193	8.42e-05	437000
B4	0.2	0.0032	0.0099	0.001	0.444	0.8	0.5	0.7	75	78	0.339	0.000104	308000
